This is an account of results in article PMC2954336, “Biophysical characterization of recombinant proteins: A key to higher structural genomics success” (Journal of Structural Biology, 2010).

Ends that are not written are not given here. fluorescein = fluorescein label on the N-terminus of the peptide (end-label); Me2 = dimethyl on Lys

By Kd is commonly meant a measure of binding affinity in units of concentration. High values mean lower affinity, low ones higher affinity.

In this assay the target is WDR5 (WD repeat domain 5) (UniProt P61964 1-334). The assay can be described thus: fluorescence polarisation; 36 nM fluorescein-labeled peptide titrated with WDR5 from 30 nM to 30 uM; 100 mM potassium phosphate buffer pH 8, 0.01% Triton X-100; data fitted to a hyperbolic equation. The conditions noted are these: both partners purified. Background: Polarisation of emitted light reports the rotation of a fluorescent probe.

fluorescein-ARTK(Me2)QTARKST [11-mer fluorescein-labeled histone H3 peptide dimethylated on lysine 4 (F-H3K4Me2)] yielded an equilibrium dissociation constant (Kd) of 100 ± 9 nM.
